Reference: patent publication US20260217824A1 (Bristol-Myers Squibb, published 2026)
Residue numbers refer to the chain shown, from its start. Names and notes keep the numbering of the source. Read-outs that look alike come from different tables or passages of the source.

Columns and labels:
[1] = target: T1, FcγRIIIA (CD16a-V158 variant) (human, UniProt P08637 17-208); assay: SPR sensorgrams, Example 10; response axis without unit, no time axis; set-up and concentrations not given
[2] = target: T2, FcγRIIB (CD32b) (human, UniProt P31994 43-217); assay: as above
T2 sequence (looked up): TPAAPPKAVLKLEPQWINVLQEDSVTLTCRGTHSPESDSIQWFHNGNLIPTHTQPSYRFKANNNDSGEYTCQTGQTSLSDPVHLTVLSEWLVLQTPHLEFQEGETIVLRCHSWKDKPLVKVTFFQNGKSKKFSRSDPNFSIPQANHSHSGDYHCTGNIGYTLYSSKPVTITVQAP

[3] = target: T3, FcγRIIIB (CD16b-NA2 variant) (human, UniProt O75015 17-200); assay: as above
T3 sequence (O75015 other isoform, or with tags, fused parts or gaps mutant limits assumed): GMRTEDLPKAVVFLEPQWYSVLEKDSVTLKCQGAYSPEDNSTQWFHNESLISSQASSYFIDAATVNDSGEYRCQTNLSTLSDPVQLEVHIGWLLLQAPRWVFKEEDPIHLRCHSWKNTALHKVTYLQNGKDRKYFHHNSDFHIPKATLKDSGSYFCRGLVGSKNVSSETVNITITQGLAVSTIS

[4] = target: T4, FcγRIIA (CD32a-R131 variant) (human, UniProt P12318 36-218); assay: SPR, response as % of Rmax (maximum FcγR capacity), Example 10; set-up and concentrations not given
T4 sequence (looked up): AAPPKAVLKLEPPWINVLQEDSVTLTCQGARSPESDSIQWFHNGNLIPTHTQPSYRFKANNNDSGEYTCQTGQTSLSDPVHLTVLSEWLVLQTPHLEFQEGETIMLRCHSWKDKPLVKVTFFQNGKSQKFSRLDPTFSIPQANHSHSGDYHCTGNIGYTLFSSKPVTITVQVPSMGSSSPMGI

[5] = target: T5, FcγRIIA (CD32a-H131 variant) (human, UniProt P12318 36-218); assay: as above
T5 sequence (looked up): T4 sequence (looked up) with R132H

[6] = target: FcγRI (CD64) (human, UniProt P12314 16-288); assay: as above
Sequence of FcγRI (CD64) (P12314 16-288 limits assumed): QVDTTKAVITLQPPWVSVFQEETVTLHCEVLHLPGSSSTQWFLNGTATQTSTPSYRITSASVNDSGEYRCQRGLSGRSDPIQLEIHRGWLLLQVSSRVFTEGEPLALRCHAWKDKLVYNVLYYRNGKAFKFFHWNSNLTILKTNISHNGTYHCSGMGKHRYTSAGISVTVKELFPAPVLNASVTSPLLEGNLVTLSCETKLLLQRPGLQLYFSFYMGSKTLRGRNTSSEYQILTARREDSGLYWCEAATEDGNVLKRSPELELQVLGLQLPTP

[7] = target: T6, cynomolgus TREM-1 on cells (cynomolgus); assay: cell-based or functional assay
T6 chain: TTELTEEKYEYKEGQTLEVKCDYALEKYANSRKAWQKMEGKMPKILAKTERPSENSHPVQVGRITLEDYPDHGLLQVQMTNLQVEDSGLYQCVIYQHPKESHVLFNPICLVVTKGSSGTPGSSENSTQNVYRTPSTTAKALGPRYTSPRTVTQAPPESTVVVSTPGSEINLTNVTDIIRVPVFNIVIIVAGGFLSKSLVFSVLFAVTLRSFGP

[8] = target: T6, cynomolgus TREM-1 on cells; assay: estimate of the 2-compartment PK model with TMDD fitted to cynomolgus PK/RO/PD data (mAb affinity for TREM-1); cyno-model estimate (CV 12%) of the TMDD PK/PD fit, not a direct binding assay
Description: (§1) A direct-effect inhibitory model was used to describe the PD response. […] The observed (open circle) and model-predicted endpoints (solid line) are provided in FIGS. 16A (0.1 mg/kg subcutaneous dosing) and 16B (10 mg/kg subcutaneous dosing).

[9] = target: T6, cynomolgus TREM-1 on cells; assay: in vivo receptor occupancy against serum concentration, Emax model, cynomolgus monkeys
Description: Upon antibody administration, pharmacokinetics, anti-drug antibodies (ADA), TREM-1 receptor occupancy (RO), and ex vivo pharmacodynamics responses were examined at pre-determined time points.
as §1

[10] = target: T7, CynoTREM1 (as named in Table 3) (cynomolgus); assay: SPR (Biacore)
T7 construct: also called cynomolgus TREM-1
T7 chain: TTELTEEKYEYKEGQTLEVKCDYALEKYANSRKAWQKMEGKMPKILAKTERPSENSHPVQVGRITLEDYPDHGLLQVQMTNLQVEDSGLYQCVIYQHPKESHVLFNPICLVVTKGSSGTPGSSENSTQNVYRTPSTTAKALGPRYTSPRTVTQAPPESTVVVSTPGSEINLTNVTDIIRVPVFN

[11] = target: T3, FcγRIIIB (CD16b-NA2 variant); assay: SPR, response as % of Rmax (maximum FcγR capacity), Example 10; set-up and concentrations not given
[12] = target: T1, FcγRIIIA (CD16a-V158 variant); assay: SPR sensorgrams, Example 10; response axis without unit, no time axis; set-up and concentrations not given; remark: listed apart in the source
[13] = target: T4, FcγRIIA (CD32a-R131 variant); assay: as above
[14] = target: T2, FcγRIIB (CD32b); assay: as above; remark: listed apart in the source
[15] = target: T5, FcγRIIA (CD32a-H131 variant); assay: as above

T1 sequence (P08637 other isoform, or with tags, fused parts or gaps mutant limits assumed): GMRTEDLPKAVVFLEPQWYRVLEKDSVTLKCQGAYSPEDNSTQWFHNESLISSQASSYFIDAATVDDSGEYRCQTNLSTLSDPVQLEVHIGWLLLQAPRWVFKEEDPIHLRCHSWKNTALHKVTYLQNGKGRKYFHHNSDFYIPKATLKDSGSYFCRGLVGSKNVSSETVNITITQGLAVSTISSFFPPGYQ

B1: mAb 0318-IgG1-Aba (antibody)
heavy: not shown
light: DIVLTQSPDSLAVSLGERATINCRASQSVDTFDYSFLHWYQQKPGQPPKLLIYRASNLESGVPDRFSGSGSGTDFTLTISSLQAEDVAVYYCQQSNQDPYTFGQGTKLEIKRTVAAPSVFIFPPSDEQLKSGTASVVCLLNNFYPREAKVQWKVDNALQSGNSQESVTEQDSKDSTYSLSSTLTLSKADYEKHKVYACEVTHQGLSSPVTKSFNRGEC
notes: IgG1 constant region with K214R, C226S, C229S, P238S (EU); also called IgG1-Aba mod; FcAba-1
[1]
  binding result: no binding
[2]
  binding result: no binding
[3]
  binding result: no binding
[4]
  binding result: no binding
[5]
  binding result: no binding
[6]
  binding result: binds

B2: mAb 0318-IgG1.1f (antibody)
heavy: EVQLVESGGGLVQPGGSLKLSCAASGFTFSTYAMHWVRQASGKGLEWVGRIRTKSSNYATYYAASVKGRFTISRDDSKNTAYLQMNSLKTEDTAVYYCTRDMGIRRQFAYWGQGTLVTVSSASTKGPSVFPLAPSSKSTSGGTAALGCLVKDYFPEPVTVSWNSGALTSGVHTFPAVLQSSGLYSLSSVVTVPSSSLGTQTYICNVNHKPSNTKVDKRVEPKSCDKTHTCPPCPAPEAEGAPSVFLFPPKPKDTLMISRTPEVTCVVVDVSHEDPEVKFNWYVDGVEVHNAKTKPREEQYNSTYRVVSVLTVLHQDWLNGKEYKCKVSNKALPSSIEKTISKAKGQPREPQVYTLPPSREEMTKNQVSLTCLVKGFYPSDIAVEWESNGQPENNYKTTPPVLDSDGSFFLYSKLTVDKSRWQQGNVFSCSVMHEALHNHYTQKSLSLSPG
light: B1 light
notes: IgG1 constant region with L234A, L235E, G237A, A330S, P331S (EU)
[4]
  binding result: binds
[6]
  binding result: binds

B3: mAb 0318-IgG1.3f (antibody)
heavy: EVQLVESGGGLVQPGGSLKLSCAASGFTFSTYAMHWVRQASGKGLEWVGRIRTKSSNYATYYAASVKGRFTISRDDSKNTAYLQMNSLKTEDTAVYYCTRDMGIRRQFAYWGQGTLVTVSSASTKGPSVFPLAPSSKSTSGGTAALGCLVKDYFPEPVTVSWNSGALTSGVHTFPAVLQSSGLYSLSSVVTVPSSSLGTQTYICNVNHKPSNTKVDKRVEPKSCDKTHTCPPCPAPEAEGAPSVFLFPPKPKDTLMISRTPEVTCVVVDVSHEDPEVKFNWYVDGVEVHNAKTKPREEQYNSTYRVVSVLTVLHQDWLNGKEYKCKVSNKALPAPIEKTISKAKGQPREPQVYTLPPSREEMTKNQVSLTCLVKGFYPSDIAVEWESNGQPENNYKTTPPVLDSDGSFFLYSKLTVDKSRWQQGNVFSCSVMHEALHNHYTQKSLSLSPGK
light: B1 light
notes: IgG1 constant region with L234A, L235E, G237A (EU)
[7]
  IC50 (nM), estimate of the cynomolgus PK/PD model: 1.9 nM
[4]
  binding result: binds
[6]
  binding result: binds
[8]
  Kd: 0.64 nM
[9]
  EC50: 1.6 nM
[10]
  Kd: 3.4 nM

B4: mAb 0318-IgG4-Aba (antibody)
heavy: not shown
light: B1 light
notes: IgG4 CH1 with IgG1 CH2 and CH3, C226S, C229S, P238S (EU); also called IgG4-Aba mod; FcAba-4
[6]
  binding result: binds
[11]
  binding result: no binding
[12]
  binding result: no binding
[13]
  binding result: no binding
[14]
  binding result: no binding
[15]
  binding result: no binding
